B1: Atos homolog protein B (Homo sapiens), Q7L5A3 (parent)
chain: MRHVQAEPSPSSEPEAGPSQPPVRQGALQGGLLMGYSPAGGATSPGVYQVSIFSPPAGTSEPHRALKRQAPSTEGPRELKRGPGLGAREGLPPEEPSTVGLLGPEGPGLGLGVASQHFSHRGLCVVEQRSSVTSSWTSGAWSPPCPPSNASCNTLHTRDWASPDPGGQGSLGESPGPAPPGQLHTLDTDLHSLAQIGGKSPVAGVGNGGSLWPRESPGTANGHSPEHTPPGPGPPGPCPTKRRLLPAGEAPDVSSEEEGPAPRRRRGSLGHPTAANSSDAKATPFWSHLLPGPKEPVLDPTDCGPMGRRLKGARRLKLSPLRSLRKGPGLLSPPSASPVPTPAVSRTLLGNFEESLLRGRFAPSGHIEGFTAEIGASGSYCPQHVTLPVTVTFFDVSEQNAPAPFLGIVDLNPLGRKGYSVPKVGTVQVTLFNPNQTVVKMFLVTFDFSDMPAAHMTFLRHRLFLVPVGEEGNANPTHRLLCYLLHLRFRSSRSGRLSLHGDIRLLFSRRSLELDTGLPYELQAVTEAPHNPRYSPLP
B2: Tuftelin-interacting protein 11 (Homo sapiens), Q9UBB9 (parent)
chain: MSLSHLYRDGEGRIDDDDDERENFEITDWDLQNEFNPNRQRHWQTKEEATYGVWAERDSDDERPSFGGKRARDYSAPVNFISAGLKKGAAEEAELEDSDDEEKPVKQDDFPKDFGPRKLKTGGNFKPSQKGFAGGTKSFMDFGSWERHTKGIGQKLLQKMGYVPGRGLGKNAQGIINPIEAKQRKGKGAVGAYGSERTTQSMQDFPVVDSEEEAEEEFQKELSQWRKDPSGSKKKPKYSYKTVEELKAKGRISKKLTAPQKELSQVKVIDMTGREQKVYYSYSQISHKHNVPDDGLPLQSQQLPQSGKEAKAPGFALPELEHNLQLLIDLTEQEIIQNDRQLQYERDMVVNLFHELEKMTEVLDHEERVISNLSKVLEMVEECERRMQPDCSNPLTLDECARIFETLQDKYYEEYRMSDRVDLAVAIVYPLMKEYFKEWDPLKDCTYGTEIISKWKSLLENDQLLSHGGQDLSADAFHRLIWEVWMPFVRNIVTQWQPRNCDPMVDFLDSWVHIIPVWILDNILDQLIFPKLQKEVENWNPLTDTVPIHSWIHPWLPLMQARLEPLYSPIRSKLSSALQKWHPSDSSAKLILQPWKDVFTPGSWEAFMVKNIVPKLGMCLGELVINPHQQHMDAFYWVIDWEGMISVSSLVGLLEKHFFPKWLQVLCSWLSNSPNYEEITKWYLGWKSMFSDQVLAHPSVKDKFNEALDIMNRAVSSNVGAYMQPGARENIAYLTHTERRKDFQYEAMQERREAENMAQRGIGVAASSVPMNFKDLIETKAEEHNIVFMPVIGKRHEGKQLYTFGRIVIYIDRGVVFVQGEKTWVPTSLQSLIDMAK
partner: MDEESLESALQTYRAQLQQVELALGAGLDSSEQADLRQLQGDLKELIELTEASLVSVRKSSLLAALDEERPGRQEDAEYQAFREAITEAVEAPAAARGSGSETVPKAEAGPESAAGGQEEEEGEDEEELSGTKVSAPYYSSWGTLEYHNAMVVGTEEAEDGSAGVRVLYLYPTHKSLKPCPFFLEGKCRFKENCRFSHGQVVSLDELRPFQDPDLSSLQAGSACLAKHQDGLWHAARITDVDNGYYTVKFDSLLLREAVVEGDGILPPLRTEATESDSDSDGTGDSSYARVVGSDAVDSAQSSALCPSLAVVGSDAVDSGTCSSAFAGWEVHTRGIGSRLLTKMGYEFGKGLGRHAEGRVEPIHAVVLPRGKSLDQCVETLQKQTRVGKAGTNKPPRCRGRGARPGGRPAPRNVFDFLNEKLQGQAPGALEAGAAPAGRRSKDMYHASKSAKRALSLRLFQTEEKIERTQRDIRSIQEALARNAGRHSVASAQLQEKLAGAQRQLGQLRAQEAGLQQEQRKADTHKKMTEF
B3: Isoform 1 of Zinc finger protein 18 (Homo sapiens), P17022-1 (parent)
chain: MPVDLGQALGLLPSLAKAEDSQFSESDAALQEELSSPETARQLFRQFRYQVMSGPHETLKQLRKLCFQWLQPEVHTKEQILEILMLEQFLTILPGEIQMWVRKQCPGSGEEAVTLVESLKGDPQRLWQWISIQVLGQDILSEKMESPSCQVGEVEPHLEVVPQELGLENSSSGPGELLSHIVKEESDTEAELALAASQPARLEERLIRDQDLGASLLPAAPQEQWRQLDSTQKEQYWDLMLETYGKMVSGAGISHPKSDLTNSIEFGEELAGIYLHVNEKIPRPTCIGDRQENDKENLNLENHRDQELLHASCQASGEVPSQASLRGFFTEDEPGCFGEGENLPEALQNIQDEGTGEQLSPQERISEKQLGQHLPNPHSGEMSTMWLEEKRETSQKGQPRAPMAQKLPTCRECGKTFYRNSQLIFHQRTHTGETYFQCTICKKAFLRSSDFVKHQRTHTGEKPCKCDYCGKGFSDFSGLRHHEKIHTGEKPYKCPICEKSFIQRSNFNRHQRVHTGEKPYKCSHCGKSFSWSSSLDKHQRSHLGKKPFQ
B4: Vesicle transport through interaction with t-SNAREs homolog 1B (Homo sapiens), Q9UEU0 (parent)
chain: MASSAASSEHFEKLHEIFRGLHEDLQGVPERLLGTAGTEEKKKLIRDFDEKQQEANETLAEMEEELRYAPLSFRNPMMSKLRNYRKDLAKLHREVRSTPLTATPGGRGDMKYGIYAVENEHMNRLQSQRAMLLQGTESLNRATQSIERSHRIATETDQIGSEIIEELGEQRDQLERTKSRLVNTSENLSKSRKILRSMSRKVTTNKLLLSIIILLELAILGGLVYYKFFRSH
partner: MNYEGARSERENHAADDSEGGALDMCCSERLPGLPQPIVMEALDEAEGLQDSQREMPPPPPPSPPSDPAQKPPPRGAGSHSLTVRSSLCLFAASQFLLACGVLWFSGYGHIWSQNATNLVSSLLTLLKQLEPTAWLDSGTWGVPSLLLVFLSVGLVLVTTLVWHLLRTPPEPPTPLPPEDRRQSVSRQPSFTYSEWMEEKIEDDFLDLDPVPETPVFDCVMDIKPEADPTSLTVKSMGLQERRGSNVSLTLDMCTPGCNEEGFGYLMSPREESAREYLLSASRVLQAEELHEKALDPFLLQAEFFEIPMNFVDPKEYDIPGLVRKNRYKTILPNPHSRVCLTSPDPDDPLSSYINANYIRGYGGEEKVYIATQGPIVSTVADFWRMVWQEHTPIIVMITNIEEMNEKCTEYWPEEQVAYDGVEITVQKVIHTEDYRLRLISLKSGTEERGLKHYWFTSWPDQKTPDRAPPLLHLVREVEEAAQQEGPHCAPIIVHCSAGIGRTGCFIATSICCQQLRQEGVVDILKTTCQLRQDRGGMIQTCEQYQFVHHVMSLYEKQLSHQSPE
B5: Caspase recruitment domain-containing protein 9 (Homo sapiens), Q9H257 (parent)
chain: MSDYENDDECWSVLEGFRVTLTSVIDPSRITPYLRQCKVLNPDDEEQVLSDPNLVIRKRKVGVLLDILQRTGHKGYVAFLESLELYYPQLYKKVTGKEPARVFSMIIDASGESGLTQLLMTEVMKLQKKVQDLTALLSSKDDFIKELRVKDSLLRKHQERVQRLKEECEAGSRELKRCKEENYDLAMRLAHQSEEKGAALMRNRDLQLEIDQLKHSLMKAEDDCKVERKHTLKLRHAMEQRPSQELLWELQQEKALLQARVQELEASVQEGKLDRSSPYIQVLEEDWRQALRDHQEQANTIFSLRKDLRQGEARRLRCMEEKEMFELQCLALRKDSKMYKDRIEAILLQMEEVAIERDQAIATREELHAQHARGLQEKDALRKQVRELGEKADELQLQVFQCEAQLLAVEGRLRRQQLETLVLSSDLEDGSPRRSQELSLPQDLEDTQLSDKGCLAGGGSPKQPFAALHQEQVLRNPHDAGLSSGEPPEKERRRLKESFENYRRKRALRKMQKGWRQGEEDRENTTGSDNTDTEGS
partner: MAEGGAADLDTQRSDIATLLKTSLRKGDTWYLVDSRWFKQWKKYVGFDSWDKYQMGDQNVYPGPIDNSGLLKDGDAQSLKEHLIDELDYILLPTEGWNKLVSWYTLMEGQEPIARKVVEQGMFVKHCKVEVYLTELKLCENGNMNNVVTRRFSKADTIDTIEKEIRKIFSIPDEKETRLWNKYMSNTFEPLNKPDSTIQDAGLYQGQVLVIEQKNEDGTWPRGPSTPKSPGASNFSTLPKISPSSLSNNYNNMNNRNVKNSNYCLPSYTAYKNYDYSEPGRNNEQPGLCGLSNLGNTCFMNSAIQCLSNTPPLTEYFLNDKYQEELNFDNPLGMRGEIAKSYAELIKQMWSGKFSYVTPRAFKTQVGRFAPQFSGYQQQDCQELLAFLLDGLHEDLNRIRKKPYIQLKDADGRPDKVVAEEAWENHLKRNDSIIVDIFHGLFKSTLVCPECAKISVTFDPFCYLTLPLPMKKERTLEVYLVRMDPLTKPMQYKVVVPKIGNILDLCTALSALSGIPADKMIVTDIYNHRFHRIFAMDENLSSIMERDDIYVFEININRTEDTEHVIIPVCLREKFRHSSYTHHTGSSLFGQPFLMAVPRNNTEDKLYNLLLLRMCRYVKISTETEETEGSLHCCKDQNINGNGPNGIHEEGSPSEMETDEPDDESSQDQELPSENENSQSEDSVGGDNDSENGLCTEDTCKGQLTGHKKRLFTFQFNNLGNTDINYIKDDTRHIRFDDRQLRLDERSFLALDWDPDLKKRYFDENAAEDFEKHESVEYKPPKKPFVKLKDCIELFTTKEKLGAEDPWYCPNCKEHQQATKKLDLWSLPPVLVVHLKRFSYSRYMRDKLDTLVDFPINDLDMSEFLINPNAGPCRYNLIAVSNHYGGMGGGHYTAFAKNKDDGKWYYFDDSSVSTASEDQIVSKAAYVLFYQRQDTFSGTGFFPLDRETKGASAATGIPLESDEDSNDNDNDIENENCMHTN
B6: NADPH-dependent diflavin oxidoreductase 1 (Homo sapiens), Q9UHB4 (parent)
chain: MPSPQLLVLFGSQTGTAQDVSERLGREARRRRLGCRVQALDSYPVVNLINEPLVIFVCATTGQGDPPDNMKNFWRFIFRKNLPSTALCQMDFAVLGLGDSSYAKFNFVAKKLHRRLLQLGGSALLPVCLGDDQHELGPDAAVDPWLRDLWDRVLGLYPPPPGLTEIPPGVPLPSKFTLLFLQEAPSTGSEGQRVAHPGSQEPPSESKPFLAPMISNQRVTGPSHFQDVRLIEFDILGSGISFAAGDVVLIQPSNSAAHVQRFCQVLGLDPDQLFMLQPREPDVSSPTRLPQPCSMRHLVSHYLDIASVPRRSFFELLACLSLHELEREKLLEFSSAQGQEELFEYCNRPRRTILEVLCDFPHTAAAIPPDYLLDLIPVIRPRAFSIASSLLTHPSRLQILVAVVQFQTRLKEPRRGLCSSWLASLDPGQGPVRVPLWVRPGSLAFPETPDTPVIMVGPGTGVAPFRAAIQERVAQGQTGNFLFFGCRWRDQDFYWEAEWQELEKRDCLTLIPAFSREQEQKVYVQHRLRELGSLVWELLDRQGAYFYLAGNAKSMPADVSEALMSIFQEEGGLCSPDAAAYLARLQQTRRFQTETWA
B7: Break repair meiotic recombinase recruitment factor 1 (Homo sapiens), Q0VDD7 (parent)
chain: MTKRKKLRTSGEGLCPPKPLKNPRLGDFYGDPQSSMLGCLHHPEEPEGKLGPVPSTQQHGEEPGKAVSSSPDEETGSPCRLLRQPEKEPAPLPPSQNSFGRFVPQFAKSRKTVTRKEEMKDEDRGSGAFSLETIAESSAQSPGCQLLVETLGVPLQEATELGDPTQADSARPEQSSQSPVQAVPGSGDSQPDDPPDRGTGLSASQRASQDHLSEQGADDSKPETDRVPGDGGQKEHLPSIDSEGEKPDRGAPQEGGAQRTAGAGLPGGPQEEGDGVPCTPASAPTSGPAPGLGPASWCLEPGSVAQGSPDPQQTPSRMGREGEGTHSSLGCSSLGMVVIADLSTDPTELEERALEVAGPDGQASAISPASPRRKAADGGHRRALPGCTSLTGETTGESGEAGQDGKPPGDVLVGPTASLALAPGSGESMMGAGDSGHASPDTGPCVNQKQEPGPAQEEAELGGQNLERDLEGFRVSPQASVVLEHREIADDPLQEPGAQQGIPDTTSELAGQRDHLPHSADQGTWADSLAVELDFLLDSQIQDALDASDFEAPPEQLFPSGNKPGPCWPGPSSHANGDPVAVAKAQPRTFVGIQASEASRMEDATNVVRGLIVELSNLNRLIMGTHRDLEAFKRLNYRKTKLGGKAPLPYPSKGPGNIPRGDPPWREL
partner: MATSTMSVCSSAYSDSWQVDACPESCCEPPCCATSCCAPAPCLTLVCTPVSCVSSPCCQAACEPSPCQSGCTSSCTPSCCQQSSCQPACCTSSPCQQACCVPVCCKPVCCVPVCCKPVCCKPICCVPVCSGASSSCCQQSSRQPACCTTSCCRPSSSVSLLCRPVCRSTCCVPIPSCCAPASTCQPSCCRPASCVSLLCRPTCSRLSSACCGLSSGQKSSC

Variants of: B1
Conditions: with dnja3_human DNAJA3, Q96EY1
Sequence of dnja3_human DNAJA3, Q96EY1 (Q96EY1 whole entry): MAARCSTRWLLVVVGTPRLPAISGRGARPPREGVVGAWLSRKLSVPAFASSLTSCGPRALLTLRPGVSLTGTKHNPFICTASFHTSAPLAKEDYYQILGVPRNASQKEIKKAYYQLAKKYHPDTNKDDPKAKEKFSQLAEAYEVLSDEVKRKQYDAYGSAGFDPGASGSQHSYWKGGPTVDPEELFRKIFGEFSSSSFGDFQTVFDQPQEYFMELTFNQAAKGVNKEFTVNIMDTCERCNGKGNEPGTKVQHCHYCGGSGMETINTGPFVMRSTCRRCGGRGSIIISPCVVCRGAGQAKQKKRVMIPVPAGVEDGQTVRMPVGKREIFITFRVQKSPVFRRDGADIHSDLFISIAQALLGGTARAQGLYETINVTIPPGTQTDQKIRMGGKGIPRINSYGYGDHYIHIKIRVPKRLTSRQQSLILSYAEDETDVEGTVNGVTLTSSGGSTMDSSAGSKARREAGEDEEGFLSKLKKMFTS

Variant	effect of a mutation on the interaction
A178T	with no effect

Variants of: B1
Conditions: with cep70_human CEP70, Q8NHQ1

Variant	effect of a mutation on the interaction
A178T	with no effect

Variants of: B1
Conditions: with ikzf1_human IKZF1, Q13422
Sequence of ikzf1_human IKZF1, Q13422 (Q13422 whole entry): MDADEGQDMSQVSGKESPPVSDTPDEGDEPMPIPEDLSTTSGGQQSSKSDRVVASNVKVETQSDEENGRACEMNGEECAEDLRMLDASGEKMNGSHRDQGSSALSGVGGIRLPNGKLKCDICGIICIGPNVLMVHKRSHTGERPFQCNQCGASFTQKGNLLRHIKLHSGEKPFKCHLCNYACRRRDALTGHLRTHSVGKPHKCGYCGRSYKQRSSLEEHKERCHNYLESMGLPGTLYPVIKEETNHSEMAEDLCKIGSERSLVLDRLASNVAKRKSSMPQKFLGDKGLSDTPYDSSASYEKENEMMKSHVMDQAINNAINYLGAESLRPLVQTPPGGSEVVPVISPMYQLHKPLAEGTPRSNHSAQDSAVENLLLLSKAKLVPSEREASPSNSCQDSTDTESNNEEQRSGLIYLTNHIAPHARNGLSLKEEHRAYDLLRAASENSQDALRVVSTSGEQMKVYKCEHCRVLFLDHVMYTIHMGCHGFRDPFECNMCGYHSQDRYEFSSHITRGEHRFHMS

Variant	effect of a mutation on the interaction
A178T	with no effect

Variants of: B2
Conditions: with zgpat_human ZGPAT

Variant	effect of a mutation on the interaction
S688L	with no effect
R8Q	with no effect

Variants of: B3
Conditions: with ttc32_human TTC32, Q5I0X7
Sequence of ttc32_human TTC32, Q5I0X7 (Q5I0X7 whole entry): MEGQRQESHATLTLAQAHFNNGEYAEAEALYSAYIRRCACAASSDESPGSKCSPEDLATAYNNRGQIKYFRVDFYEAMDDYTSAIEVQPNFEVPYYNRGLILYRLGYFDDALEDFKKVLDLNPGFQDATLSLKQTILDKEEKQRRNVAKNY

Variant	effect of a mutation on the interaction
L387F	with no effect

Variants of: B3
Conditions: with ccnc_human CCNC

Variant	effect of a mutation on the interaction
L387F	with no effect

Variants of: B4
Conditions: with ptn5_human PTPN5, P54829

Variant	effect of a mutation on the interaction
R176H	with no effect
R124Q	with no effect

Variants of: B5
Conditions: with ubp15_human USP15, Q9Y4E8

Variant	effect of a mutation on the interaction
V385L	disrupting interaction strength

Variants of: B6
Conditions: with ccd33_human CCDC33, Q8N5R6
Sequence of ccd33_human CCDC33, Q8N5R6 (Q8N5R6 whole entry): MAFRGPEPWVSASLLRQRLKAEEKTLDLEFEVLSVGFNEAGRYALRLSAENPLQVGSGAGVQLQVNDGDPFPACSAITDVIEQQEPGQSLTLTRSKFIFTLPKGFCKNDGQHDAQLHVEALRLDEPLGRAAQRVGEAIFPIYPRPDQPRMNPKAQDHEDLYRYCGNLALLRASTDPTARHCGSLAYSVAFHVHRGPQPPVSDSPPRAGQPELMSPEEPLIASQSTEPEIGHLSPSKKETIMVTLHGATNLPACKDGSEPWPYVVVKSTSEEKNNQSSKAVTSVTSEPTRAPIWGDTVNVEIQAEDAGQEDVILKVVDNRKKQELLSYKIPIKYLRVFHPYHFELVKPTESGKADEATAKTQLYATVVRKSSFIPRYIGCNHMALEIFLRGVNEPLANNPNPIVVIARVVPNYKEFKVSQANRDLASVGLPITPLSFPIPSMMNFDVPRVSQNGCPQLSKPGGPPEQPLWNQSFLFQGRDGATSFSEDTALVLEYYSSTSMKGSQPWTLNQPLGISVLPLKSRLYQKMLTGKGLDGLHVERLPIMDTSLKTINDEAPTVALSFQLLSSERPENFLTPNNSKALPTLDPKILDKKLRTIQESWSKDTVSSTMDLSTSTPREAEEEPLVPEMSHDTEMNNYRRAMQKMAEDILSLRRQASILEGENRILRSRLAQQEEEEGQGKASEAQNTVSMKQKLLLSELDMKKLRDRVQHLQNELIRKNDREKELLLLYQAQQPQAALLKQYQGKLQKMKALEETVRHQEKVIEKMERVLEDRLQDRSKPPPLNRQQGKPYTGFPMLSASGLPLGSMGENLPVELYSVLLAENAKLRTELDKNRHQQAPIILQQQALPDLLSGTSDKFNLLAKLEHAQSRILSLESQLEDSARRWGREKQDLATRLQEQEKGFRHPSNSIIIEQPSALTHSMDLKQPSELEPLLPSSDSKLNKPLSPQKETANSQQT

Variant	effect of a mutation on the interaction
V153I	with no effect

Variants of: B6
Conditions: with cpin1_human CIAPIN1, Q6FI81
Sequence of cpin1_human CIAPIN1, Q6FI81 (Q6FI81 whole entry): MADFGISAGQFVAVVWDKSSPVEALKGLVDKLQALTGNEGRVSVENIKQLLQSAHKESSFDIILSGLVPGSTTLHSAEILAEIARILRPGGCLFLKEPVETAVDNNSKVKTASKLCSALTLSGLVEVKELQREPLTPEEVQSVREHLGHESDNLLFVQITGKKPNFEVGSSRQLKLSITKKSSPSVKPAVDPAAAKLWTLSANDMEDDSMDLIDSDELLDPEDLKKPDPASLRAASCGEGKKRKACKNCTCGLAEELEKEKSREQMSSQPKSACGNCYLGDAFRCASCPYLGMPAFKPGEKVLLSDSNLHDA

Variant	effect of a mutation on the interaction
V153I	with no effect

Variants of: B6
Conditions: with itf2_human TCF4, P15884
Sequence of itf2_human TCF4, P15884 (P15884 whole entry): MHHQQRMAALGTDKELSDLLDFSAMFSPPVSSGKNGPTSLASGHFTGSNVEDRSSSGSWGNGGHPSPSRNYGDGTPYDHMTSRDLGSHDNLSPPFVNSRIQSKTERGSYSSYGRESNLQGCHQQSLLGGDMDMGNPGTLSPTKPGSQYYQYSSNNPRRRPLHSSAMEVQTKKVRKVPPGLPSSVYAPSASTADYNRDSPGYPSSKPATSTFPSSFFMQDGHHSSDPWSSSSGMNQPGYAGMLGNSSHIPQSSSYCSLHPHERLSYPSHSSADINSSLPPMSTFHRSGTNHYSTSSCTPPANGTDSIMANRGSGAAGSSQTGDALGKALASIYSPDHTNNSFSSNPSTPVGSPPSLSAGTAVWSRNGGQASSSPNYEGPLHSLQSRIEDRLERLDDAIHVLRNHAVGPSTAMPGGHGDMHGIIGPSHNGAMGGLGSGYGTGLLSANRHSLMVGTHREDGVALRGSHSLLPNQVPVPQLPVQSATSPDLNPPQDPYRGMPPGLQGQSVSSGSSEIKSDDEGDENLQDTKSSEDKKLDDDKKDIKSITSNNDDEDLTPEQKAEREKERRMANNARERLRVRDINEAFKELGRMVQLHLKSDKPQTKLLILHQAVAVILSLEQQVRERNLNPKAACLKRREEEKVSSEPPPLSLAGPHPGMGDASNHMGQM

Variant	effect of a mutation on the interaction
V153I	with no effect

Variants of: B6
Conditions: with mtus2_human MTUS2, Q5JR59
Sequence of mtus2_human MTUS2, Q5JR59 (Q5JR59 whole entry): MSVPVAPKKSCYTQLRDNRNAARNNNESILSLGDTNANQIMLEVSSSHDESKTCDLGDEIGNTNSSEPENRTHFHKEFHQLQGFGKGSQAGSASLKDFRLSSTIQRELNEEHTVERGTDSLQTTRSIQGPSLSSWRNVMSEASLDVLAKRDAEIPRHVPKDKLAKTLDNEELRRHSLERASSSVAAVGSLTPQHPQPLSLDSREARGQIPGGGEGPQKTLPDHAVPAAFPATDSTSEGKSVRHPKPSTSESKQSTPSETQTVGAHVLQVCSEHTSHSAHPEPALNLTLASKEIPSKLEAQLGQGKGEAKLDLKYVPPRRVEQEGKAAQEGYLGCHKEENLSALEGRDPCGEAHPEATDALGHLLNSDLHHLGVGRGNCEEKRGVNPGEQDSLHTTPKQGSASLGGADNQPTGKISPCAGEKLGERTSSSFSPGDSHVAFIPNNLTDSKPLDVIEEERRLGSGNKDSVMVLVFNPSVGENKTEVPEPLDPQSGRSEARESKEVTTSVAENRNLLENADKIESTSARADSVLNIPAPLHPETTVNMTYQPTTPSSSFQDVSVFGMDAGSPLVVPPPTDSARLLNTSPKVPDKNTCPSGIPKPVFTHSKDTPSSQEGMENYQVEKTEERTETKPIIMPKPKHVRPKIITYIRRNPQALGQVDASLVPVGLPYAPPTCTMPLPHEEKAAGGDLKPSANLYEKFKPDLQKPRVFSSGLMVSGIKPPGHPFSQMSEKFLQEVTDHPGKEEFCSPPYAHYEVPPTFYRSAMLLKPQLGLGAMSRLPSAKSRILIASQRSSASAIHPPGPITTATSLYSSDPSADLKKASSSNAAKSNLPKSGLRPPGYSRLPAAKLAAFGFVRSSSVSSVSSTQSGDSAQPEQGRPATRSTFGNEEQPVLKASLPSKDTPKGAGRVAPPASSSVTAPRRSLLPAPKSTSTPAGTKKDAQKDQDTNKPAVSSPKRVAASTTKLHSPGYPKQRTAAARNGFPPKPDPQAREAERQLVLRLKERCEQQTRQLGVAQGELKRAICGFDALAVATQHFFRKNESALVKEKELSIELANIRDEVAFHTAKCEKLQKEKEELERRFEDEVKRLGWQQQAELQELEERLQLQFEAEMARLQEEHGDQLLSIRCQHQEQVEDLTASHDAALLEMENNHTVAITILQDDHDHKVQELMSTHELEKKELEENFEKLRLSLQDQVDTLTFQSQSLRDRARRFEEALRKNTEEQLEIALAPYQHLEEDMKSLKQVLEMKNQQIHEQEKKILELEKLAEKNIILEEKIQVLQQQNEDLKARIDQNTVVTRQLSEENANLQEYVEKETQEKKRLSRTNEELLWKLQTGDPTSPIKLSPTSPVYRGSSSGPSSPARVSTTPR

Variant	effect of a mutation on the interaction
P281L	with no effect

Variants of: B7
Conditions: with kr103_human KRTAP10-3, P60369

Variant	effect of a mutation on the interaction
N576S	with no effect
